Test results published in the supplement of paper PMC11246515.
± gives the standard deviation of the averaged measurements.

Assay: total protein half-life in vivo (active degradation + dilution); higher = more stable protein
[1] = E. coli NCM3722 delta-clpP delta-lon delta-hslV, growth: N-lim chemostat, doubling time 6 h
[2] = E. coli NCM3722 delta-clpP, growth: N-lim chemostat, doubling time 6 h
[3] = E. coli NCM3722 delta-hslV, growth: N-lim chemostat, doubling time 6 h
[4] = E. coli NCM3722 delta-lon, growth: N-lim chemostat, doubling time 6 h
[5] = E. coli NCM3722 delta-smpB, growth: N-lim chemostat, doubling time 6 h
[6] = wild type E. coli NCM3722, growth: C-lim chemostat, doubling time 3 h
[7] = wild type E. coli NCM3722, growth: C-lim chemostat, doubling time 6 h
[8] = wild type E. coli NCM3722, growth: C-lim chemostat, doubling time 12 h
[9] = wild type E. coli NCM3722, growth: N-lim chemostat, doubling time 6 h
[10] = wild type E. coli NCM3722, growth: N-lim chemostat, doubling time 12 h
[11] = wild type E. coli NCM3722, growth: P-lim chemostat, doubling time 6 h
[12] = wild type E. coli NCM3722, growth: P-lim chemostat, doubling time 12 h

Sequence	total protein half-life in vivo [1] [h]	total protein half-life in vivo [2] [h]	total protein half-life in vivo [3] [h]	total protein half-life in vivo [4] [h]	total protein half-life in vivo [5] [h]	total protein half-life in vivo [6] [h]	total protein half-life in vivo [7] [h]	total protein half-life in vivo [8] [h]	total protein half-life in vivo [9] [h]	total protein half-life in vivo [10] [h]	total protein half-life in vivo [11] [h]	total protein half-life in vivo [12] [h]
MRVTDFSFELPESLIAHYPMPERSSCRLLSLDGPTGALTHGTFTDLLDKLNPGDLLVFNNTRVIPARLFGRKASGGKIEVLVERMLDDKRILAHIRASKAPKPGAELLLGDDESINATMTARHGALFEVEFNDERSVLDILNSIGHMPLPPYIDRPDEDADRELYQTVYSEKPGAVAAPTAGLHFDEPLLEKLRAKGVEMAFVTLHVGAGTFQPVRVDTIEDHIMHSEYAEVPQDVVDAVLAAKARGNRVIAVGTTSVRSLESAAQAAKNDLIEPFFDDTQIFIYPGFQYKVVDALVTNFHLPESTLIMLVSAFAGYQHTMNAYKAAVEEKYRFFSYGDAMFITYNPQAINERVGE [P0A7F9]	4.09 ± 0.78	3.64 ± 0.2	4.44 ± 1.4	4.49 ± 0.24	3.41 ± 0.096	2.85 ± 0.04	4.82 ± 0.32	7.45 ± 0.19	3.66 ± 0.14	5.03 ± 0.34	5.46 ± 0.24	9.48 ± 0.17
MRYDKELTENEMIRQKILQQLLEWIECNLEHPISIEDIAQKSGYSRRNIQLLFRNFMHVPLGEYIRKRRLCRAAILVRLTAKSMLDIALSLHFDSQQSFSREFKKLFGCSPREYRHRDYWDLANIFPSFLIRQQQKTECRLINFPETPIFGNSFKYDIEVSNKSPDEEVKLRRHHLARCMKNFKTDIYFVSTFEPSTKSVDLLTVETFAGTVCEYADMPKEWTTTRGLYDPTHVIWTQA	> 8											
MRYHGDMLLTTPVISTLKQNYPDAKIDMLLYQDTIPILSENPEINALYGISNKGAGTFDKIKNVLSLIKTLRANNYDLVINLTDQWMVALLVRCLPARMKISQLYGHRQHGIWKKSFTHLAPIHGTHIVERNLSVLEPLGITDFYTDTTMSYAEDCWKKMRRELDALGVKDHYVVIQPTARQIFKCWDNDKFSKVIDALQQRGYQVVLTCGPSADDLACVDEIARGCETKPITGLAGKTRFPELGALIDHAVLFIGVDSAPGHIAAAVKTPVISLFGATDHVFWRPWTENIIQFWAGNYQKMPTRHELDRNKKYLSVIPAEDVIAATEKLLPEDAPSADRNAQL	6.088 ± 0.042	6.21 ± 0.39	6.87 ± 0.63		4.85 ± 0.32	3.141 ± 0.0067	6.09 ± 0.63	11.7 ± 0.39	5.89 ± 0.19	11.9 ± 0.99	5.59 ± 0.42	11.3 ± 1.1
MRYIKSITQQKLSFLLAIYIGLFMNGAVFYRRFGSYAHDFTVWKGISAVVELAATVLVTFFLLRLLSLFGRRSWRILASLVVLFSAGASYYMTFLNVVIGYGIIASVMTTDIDLSKEVVGLNFILWLIAVSALPLILIWNNRCRYTLLRQLRTPGQRIRSLAVVVLAGIMVWAPIRLLDIQQKKVERATGVDLPSYGGVVANSYLPSNWLSALGLYAWARVDESSDNNSLLNPAKKFTYQAPQNVDDTYVVFIIGETTRWDHMGIFGYERNTTPKLAQEKNLAAFRGYSCDTATKLSLRCMFVRQGGAEDNPQRTLKEQNIFAVLKQLGFSSDLYAMQSEMWFYSNTMADNIAYREQIGAEPRNRGKPVDDMLLVDEMQQSLGRNPDGKHLIILHTKGSHFNYTQRYPRSFAQWKPECIGVDSGCTKAQMINSYDNSVTYVDHFISSVIDQVRDKKAIVFYAADHGESINEREHLHGTPRELAPPEQFRVPMMVWMSDKYLENPANAQAFAQLKKEADMKVPRRHVELYDTIMGCLGYTSPDGGINENNNWCHIPQAKEAAAN	4 ± 0.3		4.35 ± 1.7	6.45 ± 0.89	3.61 ± 0.3	2.87 ± 0.19	4.84 ± 0.023	8.037 ± 0.012	5.66 ± 0.37	8.75 ± 0.59	4.14 ± 1.1	6.76 ± 1.3
MRYPVTLTPAPEGGYMVSFVDIPEALTQGETVAEAMEAAKDALLTAFDFYFEDNELIPLPSPLNSHDHFIEVPLSVASKVLLLNAFLQSEITQQELARRIGKPKQEITRLFNLHHATKIDAVQLAAKALGKELSLVMV											1.45	3.2 ± 0.94
MRYSKLTMLIPCALLLSACTTVTPAYKDNGTRSGPCVEGGPDNVAQQFYDYRILHRSNDITALRPYLSDKLATLLSDASRDNNHRELLTNDPFSSRTTLPDSAHVASASTIPNRDARNIPLRVDLKQGDQGWQDEVLMIQEGQCWVIDDVRYLGGSVHATAGTLRQSIENR		5.61 ± 1.2	6.1159 ± 0.0003		6.06 ± 0.54	2.89 ± 0.099	6.3 ± 0.064	12.9 ± 1	6.03 ± 0.21	12.6 ± 1.1	6.22 ± 0.44	13.7 ± 0.35
MSAFTPASEVLLRHSDDFEQSRILFAGDLQDDLPARLDTAASRAHTQQFHHWQVLSRQMGDNARFSLVATADDVADCDTLIYYWPKNKPEAQFQLMNLLSLLPVGTDIFVVGENRSGVRSAEQMLADYAPLNKVDSARRCGLYFGRLEKQPVFDAEKFWGEYSVDGLTVKTLPGVFSRDGLDVGSQLLLSTLTPHTKGKVLDVGCGAGVLSVAFARHSPKIRLTLCDVSAPAVEASRATLAANGVEGEVFASNVFSEVKGRFDMIISNPPFHDGMQTSLDAAQTLIRGAVRHLNSGGELRIVANAFLPYPDVLDETFGFHEVIAQTGRFKVYRAIMTRQAKKG	6.65 ± 1.3	5.678 ± 0.047	6.2 ± 0.67	6.21 ± 0.59	5.56 ± 0.52	2.93 ± 0.21	6.41 ± 0.39	11.6 ± 0.39	5.68 ± 0.71	11.1 ± 1.8	6 ± 0.36	12.9 ± 0.31
MSAGSPKFTVRRIAALSLVSLWLAGCSDTSNPPAPVSSVNGNAPANTNSGMLITPPPKMGTTSTAQQPQIQPVQQPQIQATQQPQIQPVQPVAQQPVQMENGRIVYNRQYGNIPKGSYSGSTYTVKKGDTLFYIAWITGNDFRDLAQRNNIQAPYALNVGQTLQVGNASGTPITGGNAITQADAAEQGVVIKPAQNSTVAVASQPTITYSESSGEQSANKMLPNNKPTATTVTAPVTVPTASTTEPTVSSTSTSTPISTWRWPTEGKVIETFGASEGGNKGIDIAGSKGQAIIATADGRVVYAGNALRGYGNLIIIKHNDDYLSAYAHNDTMLVREQQEVKAGQKIATMGSTGTSSTRLHFEIRYKGKSVNPLRYLPQR [P0ADA3]	5.97 ± 0.43	6.2 ± 0.18	6.44 ± 0.29	7.02 ± 0.32	6.32 ± 0.11	2.926 ± 0.019	5.92 ± 0.28	12.8 ± 3.5	6.01 ± 0.067		5.81 ± 0.16	12 ± 0.81
MSAQINNIRPEFDREIVDIVDYVMNYEISSKVAYDTAHYCLLDTLGCGLEALEYPACKKLLGPIVPGTVVPNGVRVPGTQFQLDPVQAAFNIGAMIRWLDFNDTWLAAEWGHPSDNLGGILATADWLSRNAVASGKAPLTMKQVLTAMIKAHEIQGCIALENSFNRVGLDHVLLVKVASTAVVAEMLGLTREEILNAVSLAWVDGQSLRTYRHAPNTGTRKSWAAGDATSRAVRLALMAKTGEMGYPSALTAPVWGFYDVSFKGESFRFQRPYGSYVMENVLFKISFPAEFHSQTAVEAAMTLYEQMQAAGKTAADIEKVTIRTHEACIRIIDKKGPLNNPADRDHCIQYMVAIPLLFGRLTAADYEDNVAQDKRIDALREKINCFEDPAFTADYHDPEKRAIANAITLEFTDGTRFEEVVVEYPIGHARRRQDGIPKLVDKFKINLARQFPTRQQQRILEVSLDRARLEQMPVNEYLDLYVI						3.04 ± 0.28	4.21 ± 0.07	8.53 ± 1	5.98			
MSAQKPGLHPRNRHHSRYDLATLCQVNPELRQFLTLTPAGEQSVDFANPLAVKALNKALLAHFYAVANWDIPDGFLCPPVPGRADYIHHLADLLAEASGTIPANASILDIGVGANCIYPLIGVHEYGWRFTGSETSSQALSSAQAIISSNPGLNRAIRLRRQKESGAIFNGIIHKNEQYDATLCNPPFHDSAAAARAGSERKRRNLGLNKDDALNFGGQQQELWCEGGEVTFIKKMIEESKGFAKQVMWFTSLVSRGENLPPLYRALTDVGAVKVVKKEMAQGQKQSRFIAWTFMNDEQRRRFVNRQR	5.5 ± 0.76	4.08 ± 0.18	5.27 ± 1.1	5.31 ± 0.52	4.11 ± 0.72	2.98 ± 0.11	4.83 ± 0.83	13.2	4.81 ± 0.35	7.46 ± 0.98	5.28 ± 0.23	10.5 ± 0.17
MSAQVSLELHHRISQFLFHEASLLDDWKFRDWLAQLDEEIRYTMRTTVNAQTRDRRKGVQPPTTWIFNDTKDQLERRIARLETGMAWAEEPPSRTRHLISNCQISETDIPNVFAVRVNYLLYRAQKERDETFYVGTRFDKVRRLEDDNWRLLERDIVLDQAVITSHNLSVLF	> 8					2.05	5.02	8.73			5.1 ± 0.36	9.68 ± 0.98
MSCEELEIVWNNIKAEARTLADCEPMLASFYHATLLKHENLGSALSYMLANKLSSPIMPAIAIREVVEEAYAADPEMIASAACDIQAVRTRDPAVDKYSTPLLYLKGFHALQAYRIGHWLWNQGRRALAIFLQNQVSVTFQVDIHPAAKIGRGIMLDHATGIVVGETAVIENDVSILQSVTLGGTGKSGGDRHPKIREGVMIGAGAKILGNIEVGRGAKIGAGSVVLQPVPPHTTAAGVPARIVGKPDSDKPSMDMDQHFNGINHTFEYGDGI [P0A9D4]	5.17 ± 0.28	4.83 ± 0.052	4.32 ± 0.11	4.85 ± 0.097	4.76 ± 0.16	3.65 ± 0.071	5.49 ± 0.22	9.82 ± 0.61	5.03 ± 0.5	7.88 ± 0.39	5.83 ± 0.13	11.5 ± 0.77
MSDDNSHSSDTISNKKGFFSLLLSQLFHGEPKNRDELLALIRDSGQNDLIDEDTRDMLEGVMDIADQRVRDIMIPRSQMITLKRNQTLDECLDVIIESAHSRFPVISEDKDHIEGILMAKDLLPFMRSDAEAFSMDKVLRQAVVVPESKRVDRMLKEFRSQRYHMAIVIDEFGGVSGLVTIEDILELIVGEIEDEYDEEDDIDFRQLSRHTWTVRALASIEDFNEAFGTHFSDEEVDTIGGLVMQAFGHLPARGETIDIDGYQFKVAMADSRRIIQVHVKIPDDSPQPKLDE [P0AE78]	5.6 ± 0.81	4.83 ± 0.09	5.25 ± 0.99	5.54 ± 0.81	4.73 ± 0.13	2.91 ± 0.18	5.83 ± 0.67	10 ± 0.62	4.6 ± 0.091	8.26 ± 0.13	5.28 ± 0.17	9.77 ± 1.1
MSDERYQQRQQRVKEKVDARVAQAQDERGIIIVFTGNGKGKTTAAFGTATRAVGHGKKVGVVQFIKGTWPNGERNLLEPHGVEFQVMATGFTWDTQNRESDTAACREVWQHAKRMLADSSLDMVLLDELTYMVAYDYLPLEEVVQALNERPHQQTVIITGRGCHRDILELADTVSELRPVKHAFDAGVKAQIGIDY [P0A9H5]	4.8 ± 0.41	4.52 ± 0.17	4.27 ± 0.56	5.29 ± 1.2	4.17 ± 0.17	3.41 ± 0.32	5.05 ± 0.13	9.56 ± 0.6	4.235 ± 0.024	6.63 ± 0.33	5.852 ± 0.021	11 ± 0.43
MSDIALTVSILALVAVVGLFIGNVKFRGIGLGIGGVLFGGIIVGHFVSQAGMTLSSDMLHVIQEFGLILFVYTIGIQVGPGFFASLRVSGLRLNLFAVLIVIIGGLVTAILHKLFDIPLPVVLGIFSGAVTNTPALGAGQQILRDLGTPMEMVDQMGMSYAMAYPFGICGILFTMWMLRVIFRVNVETEAQQHESSRTNGGALIKTINIRVENPNLHDLAIKDVPILNGDKIICSRLKREETLKVPSPDTIIQLGDLLHLVGQPADLHNAQLVIGQEVDTSLSTKGTDLRVERVVVTNENVLGKRIRDLHFKERYDVVISRLNRAGVELVASGDISLQFGDILNLVGRPSAIDAVANVLGNAQQKLQQVQMLPVFIGIGLGVLLGSIPVFVPGFPAALKLGLAGGPLIMALILGRIGSIGKLYWFMPPSANLALRELGIVLFLSVVGLKSGGDFVNTLVNGEGLSWIGYGALITAVPLITVGILARMLAKMNYLTMCGMLAGSMTDPPALAFANNLHPTSGAAALSYATVYPLVMFLRIITPQLLAVLFWSIG		5.7 ± 0.54	6.35	5.52 ± 0.89	6.03 ± 0.39	3.27 ± 0.38	5.33 ± 1.1	11.4 ± 1.6	5.98 ± 0.39	10.4 ± 0.3	5.7 ± 0.059	9.94 ± 1.5
